Values quoted from earlier work in US20240082365A1, “MULTIDISCIPLINARY TREATMENT OF CHRONIC DISEASE USING REGENERATIVE CELLS AND TECHNOLOGIES” (priority 2022, published 2024).

Experiments:
[1] = system: metastatic renal cell carcinoma (RCC) and metastatic melanoma; conditions: high-dose, e.g. IV bolus 600,000 IU/kg every 8 hours for up to 14 doses
[2] = subcutaneous, one-compartment model

Which “time at which peak plasma levels are reached” value (after SC administration) does the source give for aldesleukin here?
Its value is 2 to 6 h.

And the absorption half-life [2]?
Its absorption half-life is 45 min.

And the elimination half-life [2]?
The elimination half-life was 3 to 5 h.

And the antitumor activity [1]?
The antitumor activity was “demonstrated antitumor activity”.
